The values below come from patent US20170088616A1 (Kyowa Kirin, published 2017).

For experiment [1], the target named is T1, Mucin chimeraTIM-3 (human TIM-3 with the mucin domain substituted for mouse TIM-3) (human/mouse chimera).
T1 construct: expressed on HEK293F cells
Kind of experiment: flow cytometry, transfected HEK293F cells. (In general: Flow cytometry measures light scatter and fluorescence of single cells or particles in a stream.)

Experiment [2] addresses T2, human TIM-3 (human, UniProt Q8TDQ0 22-301).
T2 construct: endogenous on Daudi cells in the ADCC test; also called HAVCR2; hTIM-3
Kind of experiment: flow cytometry, Alexa-647 labeled antibody on human TIM-3 EoL-1 cells pre-bound with 10 ug/ml unlabeled competitor: anti-DNP (negative control).

Experiment [3] deals with T2, human TIM-3. Kind of experiment: flow cytometry, Alexa-647 labeled antibody on human TIM-3 EoL-1 cells pre-bound with 10 ug/ml unlabeled competitor: 644.

B1: antibody 4545 (antibody, V domains shown)
VH: QVQLQESGPGLVKPSETLSLTCTVSGGSFSRGGYYWNWIRQPPGKGLEWIGYIYYSGSTNYNPSLKSRVTISLDTSKNQFSLKLSSVTAADTAVYYCARDHYSSSWTFDYWGQGTLVTVSS
VL: EIVLTQSPATLSLSPGERATLSCRASQSVSSYLAWYQQKPGQAPRLLIYDASNRATGIPARFSGSGSGTDFTLTISSLEPEDFAVYYCQQRSNWPPTFGQGTKLEIK
notes: Hybridoma isotype IgG2; recombinant form has human IgG1 constant region and kappa chain, made in FUT8-/- CHO cells (defucosylated)
On to B1, for which the binding result (in experiment [1]; with human TIM-3 [2]) was “binds” each time.

B2: antibody 644 (antibody, V domains shown)
VH: QVQLVESGGGLVKPGGSLRLSCAASGFTFSDYYMSWIRQAPGKGLEWVSFISSSGSIIYYADSVKGRFTISRDNAKNSLYLQMNSLRAEDTAVYYCARDGYSSSWYYYGMDVWGQGTTVTVSS
VL: not shown
notes: Hybridoma isotype IgG4; recombinant form has human IgG1 constant region and kappa chain, made in FUT8-/- CHO cells (defucosylated)
On to B2, for which the binding result (in experiment [1]; in the experiment with human TIM-3 [2]) was “binds” in each case.

B3: antibody 512 (antibody, V domains shown)
VH: QVQLVESGGGVVQPGRSLRLSCAASGFTFNSYGMHWVRQAPGKGLEWVAVIWYDGSNKYYGDSVKGRFTISRDNSKNTLYLQMNSLRAEDTAVYYCAIWFGEMFSEYFQHWGQGTLVTVSS
VL: AIQLTQSPSSLSASVGDRVTITCRASQGISSALAWYQQKPGKAPKLLIYDASSLESGVPSRFSGSGSGTDFTLTISSLQPEDFATYYCQQFNSYPLTFGGGTKVEIKR
notes: Hybridoma isotype IgG1; recombinant form has human IgG1 constant region and kappa chain, made in FUT8-/- CHO cells (defucosylated)
Regarding B3, the binding result (in experiment [1]; with human TIM-3 [3]) was “binds” throughout.

B4: antibody 8213 (antibody, V domains shown)
VH: QVQLQQPGAELVKPGASVKLSCKASGYTFTSYWMHWVKQRPGQGLEWIGEINPSNGRTNYNEKFKTKATLTVDKSSSTAYMQLSSLTSEDSAVYYCAGGYYLYFDYWGQGTTLTVSS
VL: DILMTQSPSSMSVSLGDTVNITCHASQGIRINIGWLQQKPGKSFKGLIYHGTNLEDGVPSRFSGSGSGPDYSLTISSLESEDFADYYCVQYGQFPWTFGGGTKLEMK
notes: Hybridoma isotype mouse IgG2b; recombinant form has mouse IgG2a constant region and kappa chain, made in HEK293F cells
As for B4, the binding result (in experiment [1]; with human TIM-3 [2]) was “binds” in each case.
